Results from US20210347908A1 (ELPISCIENCE SUZHOU BIOPHARMA, published 2021).

Columns and labels:
[1] = molecular target: T1, 6×His tagged C57BL/6 mouse SIRPα ECD recombinant protein (mouse (C57BL/6), UniProt P97797 32-373); test: SPR (Biacore)
T1 construct: extracellular domain; bought; also called mSIRPα (C57BL/6); mouse SIRPα (C57BL/6) ECD
T1 sequence: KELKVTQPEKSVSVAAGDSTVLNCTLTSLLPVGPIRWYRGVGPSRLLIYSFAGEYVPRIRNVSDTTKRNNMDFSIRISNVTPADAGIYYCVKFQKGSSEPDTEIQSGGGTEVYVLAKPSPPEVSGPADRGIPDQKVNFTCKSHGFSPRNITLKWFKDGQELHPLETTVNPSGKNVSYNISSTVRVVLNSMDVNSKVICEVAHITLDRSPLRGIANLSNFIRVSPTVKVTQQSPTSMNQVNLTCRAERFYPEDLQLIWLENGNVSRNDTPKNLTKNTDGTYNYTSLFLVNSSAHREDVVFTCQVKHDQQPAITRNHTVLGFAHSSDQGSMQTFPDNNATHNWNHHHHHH

[2] = molecular target: T2, 6×His tagged human SIRPα v1 ECD recombinant protein (human, UniProt P78324 31-373); test: SPR (Biacore)
T2 construct: extracellular domain; bought; also called hSIRPα V1 (SPR antigen)

[3] = molecular target: T3, 6×His tagged human SIRPα v2 ECD recombinant protein (human); test: SPR (Biacore)
[4] = molecular target: T1, 6×His tagged C57BL/6 mouse SIRPα ECD …; test: ELISA on coated mouse SIRPα (C57BL/6) ECD [Continued) F]
[5] = molecular target: T4, biotin labeled soluble human SIRPα v1 ECD recombinant protein (human, UniProt P78324 31-373, biotin labeled); test: competitive ELISA, hSIRPα/CD47 blocking
T4 construct: extracellular domain

[6] = molecular target: T5, Fc tagged human SIRPβ ECD recombinant protein (human, UniProt O00241 30-371); test: ELISA
T5 construct: range 1-371; cloned range includes the signal peptide; also called hSIRPβ; not shown: human IgG Fc region (hFc) of the pCPC vector

[7] = molecular target: T6, Fc tagged human SIRPα v2 ECD recombinant protein (human); test: ELISA
T6 construct: range 1-369; cloned range M1-R369 includes the signal peptide; also called hSIRPα V2

[8] = molecular target: T7, 6×His tagged human SIRPα v8 ECD recombinant protein (human); test: ELISA
T7 construct: extracellular domain; bought; also called hSIRPα V8

[9] = molecular target: T8, Fc tagged human SIRPγ ECD recombinant protein (human, UniProt Q9P1W8 29-360); test: ELISA
T8 construct: range 1-360; cloned range includes the signal peptide; also called hSIRPγ; not shown: human IgG Fc region (hFc) of the pCPC vector

[10] = molecular target: T9, Fc tagged human SIRPα v1 ECD recombinant protein (human, UniProt P78324 31-370); test: ELISA
T9 construct: range 1-370; cloned range M1-R370 includes the signal peptide; also called hSIRPα V1; not shown: human IgG Fc region (hFc) of the pCPC vector

[11] = molecular target: T1, 6×His tagged C57BL/6 mouse SIRPα ECD …; test: SPR (Biacore), antibody captured
Procedure, shortened: (§1)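 Chimeric anti-SIRPα antibodies captured on CM5 via anti-human antibody kit; His-tagged SIRPα ECD proteins injected as dilution series at 30 μl/min for 180 s, dissociation 400 s, regeneration with 3 M MgCl₂. Ka, Kd and KD from 1:1 binding model fits.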

[12] = molecular target: T2, 6×His tagged human SIRPα v1 ECD …; test: SPR (Biacore), antibody captured
Procedure, shortened: as §1

[13] = molecular target: T3, 6×His tagged human SIRPα v2 ECD …; test: SPR (Biacore), antibody captured
Procedure, shortened: as §1

[14] = molecular target: T3, 6×His tagged human SIRPα v2 ECD …; test: SPR (Biacore), antibody captured, 6×His tagged human SIRPα v2 ECD as analyte
Experimental: Anti-SIRPα chimeric antibodies were characterized for binding affinity against human SIRPα v1, human SIRPα v2 and C57BL/6 mouse SIRPα using Biacore (GE). Briefly the antibodies to be tested were captured to CM5 chip (GE) using Human Antibody Capture Kit (GE). The antigens of 6×His tagged human SIRPα v1, human SIRPα v2 and C57BL/6 mouse SIRPα ECD recombinant proteins were serially diluted for multiple doses and injected at 30 μl/min for 180 s. Buffer flow was maintained for dissociation of 400 s. 3 M MgCl₂ was used for chip regeneration. The association and dissociation curves were fit with 1:1 binding model, and the Ka/Kd/KD values for each antibody were calculated.
hu035.01, the first version of humanized 035, was characterized by FACS assay using CHOK1-human SIRPα v1-1B4 cells, ELISA assay using Fc tagged human SIRPα v2 ECD recombinant protein and SPR analysis using the antigen of 6×His tagged human SIRPα v2 ECD recombinant protein (refer to methods described in Example 3.4, Example 3.3 and Example 4.3). […] In particular, hu035.01 cannot be detected to bind with C57BL/6 mouse SIRPα ECD in ELISA assay possibly due to reduced binding activity (FIG. 5B).

[15] = molecular target: T1, 6×His tagged C57BL/6 mouse SIRPα ECD …; test: ELISA on coated mouse SIRPα (C57BL/6) ECD, antibody at 10, 1 and 0.1 ug/ml [right panel mSIRPα ECD (C57BL/6]

T3 sequence (chain, as listed by the source): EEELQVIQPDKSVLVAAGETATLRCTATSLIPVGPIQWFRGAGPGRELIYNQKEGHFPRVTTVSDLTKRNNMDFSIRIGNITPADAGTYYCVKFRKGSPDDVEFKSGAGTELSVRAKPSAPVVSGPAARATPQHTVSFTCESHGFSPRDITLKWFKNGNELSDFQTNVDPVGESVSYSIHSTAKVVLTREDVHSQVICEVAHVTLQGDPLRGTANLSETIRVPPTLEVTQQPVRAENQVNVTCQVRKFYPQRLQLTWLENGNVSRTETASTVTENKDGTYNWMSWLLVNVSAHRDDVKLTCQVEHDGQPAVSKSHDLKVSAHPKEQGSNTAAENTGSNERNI
T2 sequence (P78324 other isoform, or with tags, fused parts or gaps): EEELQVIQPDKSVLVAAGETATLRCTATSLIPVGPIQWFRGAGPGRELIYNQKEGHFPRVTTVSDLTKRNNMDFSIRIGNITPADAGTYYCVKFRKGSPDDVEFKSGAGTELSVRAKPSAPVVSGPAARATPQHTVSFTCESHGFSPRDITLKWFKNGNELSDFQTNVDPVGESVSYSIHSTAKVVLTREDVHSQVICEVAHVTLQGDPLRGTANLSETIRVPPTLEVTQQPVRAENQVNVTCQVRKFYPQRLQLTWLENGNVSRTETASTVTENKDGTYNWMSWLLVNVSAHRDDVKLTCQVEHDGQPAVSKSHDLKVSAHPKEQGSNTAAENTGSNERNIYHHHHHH
T8 sequence (Q9P1W8 29-360 limits assumed, form in doubt): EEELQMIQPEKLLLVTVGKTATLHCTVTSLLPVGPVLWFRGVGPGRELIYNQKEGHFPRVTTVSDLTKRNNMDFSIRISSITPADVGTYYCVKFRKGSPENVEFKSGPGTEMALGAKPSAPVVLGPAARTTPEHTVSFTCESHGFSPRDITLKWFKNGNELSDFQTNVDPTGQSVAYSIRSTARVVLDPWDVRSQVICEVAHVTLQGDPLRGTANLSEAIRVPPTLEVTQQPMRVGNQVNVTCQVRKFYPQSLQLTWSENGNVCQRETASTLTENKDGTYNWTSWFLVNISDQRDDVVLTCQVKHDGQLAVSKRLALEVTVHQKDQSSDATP
T9 sequence (P78324 31-370 limits assumed): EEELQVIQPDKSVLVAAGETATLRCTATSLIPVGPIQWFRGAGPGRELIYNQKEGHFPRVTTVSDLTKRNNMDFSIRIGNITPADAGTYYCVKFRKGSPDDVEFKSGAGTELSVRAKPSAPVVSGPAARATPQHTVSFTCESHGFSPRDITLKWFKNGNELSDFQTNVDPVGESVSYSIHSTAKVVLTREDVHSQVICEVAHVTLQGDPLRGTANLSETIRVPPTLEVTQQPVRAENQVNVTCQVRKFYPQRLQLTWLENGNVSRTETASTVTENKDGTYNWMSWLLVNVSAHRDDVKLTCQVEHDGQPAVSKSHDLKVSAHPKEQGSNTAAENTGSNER
T4 sequence (P78324 31-373): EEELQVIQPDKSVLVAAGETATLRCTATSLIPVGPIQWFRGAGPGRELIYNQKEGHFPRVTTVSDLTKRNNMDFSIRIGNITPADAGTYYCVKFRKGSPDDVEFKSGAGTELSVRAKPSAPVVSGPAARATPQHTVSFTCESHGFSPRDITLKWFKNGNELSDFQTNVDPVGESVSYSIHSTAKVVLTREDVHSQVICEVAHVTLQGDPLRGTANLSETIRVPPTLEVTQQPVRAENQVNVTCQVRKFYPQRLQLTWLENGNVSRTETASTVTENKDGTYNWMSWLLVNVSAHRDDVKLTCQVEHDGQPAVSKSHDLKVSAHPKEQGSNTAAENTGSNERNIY
T5 sequence (O00241 30-371 limits assumed, form in doubt): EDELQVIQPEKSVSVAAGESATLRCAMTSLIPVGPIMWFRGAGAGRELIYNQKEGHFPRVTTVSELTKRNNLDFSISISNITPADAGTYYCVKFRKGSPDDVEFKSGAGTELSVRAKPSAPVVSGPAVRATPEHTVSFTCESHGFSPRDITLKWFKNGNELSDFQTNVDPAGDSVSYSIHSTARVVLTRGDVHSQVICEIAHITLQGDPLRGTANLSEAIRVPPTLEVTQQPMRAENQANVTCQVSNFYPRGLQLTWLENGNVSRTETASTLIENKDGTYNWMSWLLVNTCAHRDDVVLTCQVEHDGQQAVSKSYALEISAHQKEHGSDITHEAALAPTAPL

B1: chimeric antibody 035c (antibody, V domains shown)
VH: QIQLVQSGPELRKPGETVKISCKASGYSFTNYAMNWVKQAPGKVLKWMGFINTYTGEPTYADDFKGRFAFSLETSASTAYLQINNLKNEDTATYFCTRTRGYYDFDGGAFDYWGQGTSLTVSS
VL: DIVMTQSQKFMSTSIGDRVSVTCKASQNVGTHLAWYQQKPGQSPKALIFSASYRYIGVPDRFTGSGSGTDFTLTITNVQSEDLAEYFCQQYNTYPLTFGAGTKLELK
Kd [1]: 5.27 µM
Kd [2]: 1.89 nM
Kd [3]: 1.39 nM
EC50 (read off the curve) [4]: ~0.3 µg/mL
IC50 [5]: 1.03 nM
EC50 [6]: 0.13 nM
EC50 [7]: 0.13 nM
EC50 [8]: 0.2 nM
EC50 [9]: 16.4 nM
EC50 [10]: 0.16 nM
Kd [11]: 5.27 µM
koff [11]: 0.0247 s⁻¹
kon [11]: 4690 M⁻¹ s⁻¹
Kd [12]: 1.89 nM
koff [12]: 0.000274 s⁻¹
kon [12]: 145000 M⁻¹ s⁻¹
Kd [13]: 3.82 nM
koff [13]: 0.000238 s⁻¹
kon [13]: 62100 M⁻¹ s⁻¹
koff [14]: 5.73e-05 s⁻¹
kon [14]: 93500 M⁻¹ s⁻¹

B2: chimeric antibody 032c (antibody, V domains shown)
VH: EVRLEESGGGLVQPGGSMKLSCVVSGFTFRNYWMNWVRQSPERGLEWIAEITLKSNTYATHYAESVKGRFAISRDDSKSSFYLQMNDLRPEDTGIYYCTTFTKVVADWHLDVWGAGTTVTVSS
VL: DVLMTQTPLSLPVNLGDQASISCRSSQNIVHSNGNTYLEWYLQKPGQSPKLLIYKVSNRFSGVPDRFSGSGSGTDFTLRISRVEAEDLGVYYCFQGSHVPFTFGSGTKLEIK
binding result [15]: no binding (tested: 10 ug/ml)
